Data on one substance can be found in patent US20170340748A1.

pEC50: −log10 of the molar value. Where two headings read alike, the source gives them in different places.

For assay [1], the target named is T47D cells (human) (UniProt P15328). Briefly: flow cytometry binding on T47D cells.
Assay [2] shares this target. Briefly: flow cytometry binding on T47D cells. This is another data set of the same source.

Chain of T47D cells (human) (P15328 25-234, stated change not applied): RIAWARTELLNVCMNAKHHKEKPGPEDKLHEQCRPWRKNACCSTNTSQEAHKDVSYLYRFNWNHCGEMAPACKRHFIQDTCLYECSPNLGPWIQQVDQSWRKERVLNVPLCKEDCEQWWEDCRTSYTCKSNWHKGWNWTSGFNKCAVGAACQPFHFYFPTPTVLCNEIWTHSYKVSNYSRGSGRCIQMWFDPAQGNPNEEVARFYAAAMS

Take huMOV19: the pEC50 (usually −log10 of the EC50, conventionally taken in molar units) in assay [1] is 9.84; in assay [2], 9.50.
